The data set has as its system PAPPA2 (pappalysin-2), full-length urinary protein from vAKI patients.

Take Cathepsin D: the “digestion of urinary PAPPA2, loss of PAPPA2 immunoreactivity on immunoblot” value is “the addition of cathepsin D to vAKI samples digested PAPPA2”.
